Laboratory results published in paper PMC7943553 (2021).

What was measured:
[1] = target: 250233; test: BLI
[2] = target: 335338; test: BLI
[3] = target: 326327; test: BLI
[4] = target: 260261; test: BLI
[5] = target: 262231; test: BLI
[6] = target: 279280; test: BLI
[7] = target: 346343; test: BLI
[8] = target: 267268; test: BLI
[9] = target: 254255; test: BLI
[10] = target: 340341; test: BLI
[11] = target: 256257; test: BLI
[12] = target: 277278; test: BLI
[13] = target: 239229; test: BLI
[14] = target: 281282; test: BLI
[15] = target: 252248; test: BLI
[16] = target: 250233; test: BLI; representative sensorgram
[17] = target: 335338; test: BLI; representative sensorgram
[18] = target: 326327; test: BLI; representative sensorgram
[19] = target: 260261; test: BLI; representative sensorgram
[20] = target: 262231; test: BLI; representative sensorgram
[21] = target: 279280; test: BLI; representative sensorgram
[22] = target: 346343; test: BLI; representative sensorgram
[23] = target: 267268; test: BLI; representative sensorgram
[24] = target: 254255; test: BLI; representative sensorgram
[25] = target: 340341; test: BLI; representative sensorgram
[26] = target: 256257; test: BLI; representative sensorgram
[27] = target: 277278; test: BLI; representative sensorgram
[28] = target: 239229; test: BLI; representative sensorgram
[29] = target: 252248; test: BLI; representative sensorgram

B1: P. vivax Reticulocyte Binding Protein 2b, residues 161–1454 (domain or fragment)
chain: PSPESTQITNTTDNIDYFDISDESNYYLISQLRPHFSNIYFFDEFKRYASYHTEIKRYEDIHKTKVNSLLNEASRAIGICNRAKNTVKGLINILENPQKFKTQRESYDVKLRQYEEKKEAFRGCLLNKNRKNLDQIKKINNEIRDLLEKLKCSQDCQTNVYFDMIKIYLVDFKKMPYENYDTFIKQYKNSYLSGVDMIRKIEKQIDNPVTINAIKFTQKEMGYIIDRFEYHLQKVKHSIDQVTALSDGVKPKQVTKNRLKEYYFNIGNYYSIFKFGKDSLNMLNKALIHKEKIVHNLLGELFGHLEERISKLIDSEYFITESNNIISQSEETLKLAEDVYDKNTKLIEDLTLYPHLEINEFKKDYDNNVEDLRESIIYIQSYVSSIKSAYRYNVLEKDSVESKQKNIPANSNAQKKVDELLSIIDSISYSNFSVAENFQKMKDYYKEIEKLKIKILQLIEAIKKYQQHVEELINKEKAVAILKEDINKIIEYIKGIIEKLKQLISANKDFDKIFQQVEQLINEALFNKDQFEHNKNDLHTKMKEIMHTFHERDLQQFLDNMSKFLKDQEASYQNADSKEKLDQLLTTVKAKQDELKEMKCDDIPDIIDNLKKESQNVLNLKDEVINKQFENMRTEMSSSLDQMTKEYNALKSSIEEYEAEKKGIENHKQNIIKRKNTFIVAEHENDEDVPEGKNTYNEFISNKDTILQKESAISNQMNTLEEKKRNRKTTLQTYGDAIQKLETYTEKKDEETKVLLDKFNTEVENFKLDEDEKSFNDAKSIVSNTINEVENENKNIDSIKKVNIAMKRSRSNQQSVEQLIRNKDNLLKEKMEKHFQKINTDEIIGQSAKANLLNNLESEKAIINEQLNDAHLNDLKLQIEKTLSYCEKSRENIKGNNGTHPEELNASEIEWEATKGKIETLNSNYQALNKNMDDIINKQHDEMIVLIDRDIKEKGKDIELKVEQRIQALEKMKAKLSSFDTNEDVKKYQSDINKEELIKLKEMSTAVLNKIDQNKNQLINVKTKSSGYVAESNGIKNKQTEPSQEKDKQIVYNTNRGDIEKVYKNIRDMYNELDDVEKEETTSNEVDNIEMQYDRLLINLLVQKINEENTKAKGLMEEIKSYIENIESVQAKMSDETREGATEFEFNQYQQSSLANDKKITEIVQHAINKKGEAERSKKTNEVKSIKNDVNTYMQQVIDEYNAMQKALGDIKNVNDLLISTSGRRIAEEISKSTNEAENFEKQAKGELGKINDIIEKMENQMVQAKEHENKIHINLEDKQIDEEVQKIRQIHEE
modifications: DyLight 488 (NHS ester) in the FRET assay; biotin (BirA site) in the competition ELISA between human mAbs
[1]
  Kd: 0.988 nM
  koff: 0.00035 s⁻¹
[2]
  Kd: 0.0782 nM
  koff: 3.08e-05 s⁻¹
[3]
  Kd: 0.642 nM
  koff: 0.000246 s⁻¹
[4]
  Kd: 0.0205 nM
  koff: 6.23e-06 s⁻¹
[5]
  Kd: 0.14 nM
  koff: 6.22e-05 s⁻¹
[6]
  Kd: 0.727 nM
  koff: 0.000194 s⁻¹
[7]
  Kd: < 0.01 nM
  koff: < 1e-06 s⁻¹
[8]
  Kd: 0.213 nM
  koff: 5.71e-05 s⁻¹
[9]
  Kd: 0.0742 nM
  koff: 2.52e-05 s⁻¹
[10]
  Kd: 0.107 nM
  koff: 3.85e-05 s⁻¹
[11]
  Kd: < 0.01 nM
  koff: < 1e-06 s⁻¹
[12]
  Kd: 0.0796 nM
  koff: 3.08e-05 s⁻¹
[13]
  Kd: 0.112 nM
  koff: 4.6e-05 s⁻¹
[14]
  Kd: 0.0273 nM
  koff: 6.03e-06 s⁻¹
[15]
  Kd: 0.586 nM
  koff: 0.000193 s⁻¹
[16]
  Kd: 1 nM
[17]
  Kd: 0.0505 nM
[18]
  Kd: 0.5 nM
[19]
  Kd: < 0.01 nM
[20]
  Kd: 0.1 nM
[21]
  Kd: 0.8 nM
[22]
  Kd: < 0.01 nM
[23]
  Kd: 0.3 nM
[24]
  Kd: 0.0157 nM
[25]
  Kd: 0.0794 nM
[26]
  Kd: < 0.01 nM
[27]
  Kd: 0.0189 nM
[28]
  Kd: 0.1 nM
[29]
  Kd: 0.3 nM
